The source of these data is the nanobody polyreactivity screen of Harvey et al. (2022).

A short description of this data set: yeast display, Sf9 membrane polyspecificity reagent, FACS + sequencing; frameworks hold sequencing errors. In short, it runs like this:
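After 36–48 hours of galactose induction, yeast (Saccharomyces cerevisiae BJ5465) displaying a synthetic nanobody library were stained at 4 °C for 1 hour with 10% biotinylated, detergent-solubilized Sf9 membrane reagent. Streptavidin microbeads enriched the stained cells before FACS sorting into low and high (top ~1%) gates on anti-HA and streptavidin fluorescence. Each clone's polyreactivity label reflects its gate of origin.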
For “QVQLVESGGGLVQAGGSLRLSCAASGYTFIINAMGWYRQAPGKERELVASISGGGTYYADSVKGRFTISRDNAKNTVYLEMNSLKREDTAVYYCNATRRRKYYKYGGDYWGQGTQVTVSS”, the “polyreactivity (PSR sort gate)” value is “high polyreactivity”. As to “QVQLVESGGGLVQAGGSLRLSCAASGYTFIVNAMGWYRQAPGKERELVAGISYRGGRTFYADSVKGRFTISRDNAKNTVYLQMTSLKPEDTAVYYCAARKTGIPFYNYDYWGQGTQVTVSS”, the “polyreactivity (PSR sort gate)” value is recorded as “low polyreactivity”.

As to “QVQLVESGGGLVQAGGSLRLSCAASGYTFLISAMGWYRQAPGKERELVAVISSGGSTSYADSVKGRFTISRDNAKNTVYLQMNSLKPEDSAVYYCAAALAGGRRGGDYWGQGTQVTVSS”, the “polyreactivity (PSR sort gate)” value is listed as “low polyreactivity”. Take “QVQLVESGGGLVQAGGSLRLSCAASGYTFLPNAMGWYRQAPGKESEFVAAISYSGGRTYYADSVKGRFTISRDNAKNTVYLLMNSLKPEDTAVYYCARDRRYWAVLSDYWGQGTQVTVSS”: the “polyreactivity (PSR sort gate)” value was “low polyreactivity”.

Take “QVQLVESGGGLVQAGGSLRLSCAASGYTFLYYAMGWYRQAPGKEREFVAAISRSGGSTYYADSVKGRFTISRDNAKNTVYLQMNSLKPEDTAVYYCAARFRYQHQRGDYWGQGTQVTVSS”: the “polyreactivity (PSR sort gate)” value is “high polyreactivity”.

Take “QVQLVESGGGLVQAGGSLRLSCAASGYTFNRNAMGWYRQAPGKERELVASITRRGGYTYYADSVKGRFTISRDNAKNTDYLQMISLKPEDTAVYYCAVESIRTGDYWGQGTQVTVSS”: the “polyreactivity (PSR sort gate)” value was “high polyreactivity”.

On to “QVQLVESGGGLVQAGGSLRLSCAASGYTFPKYAMGWYRQAPGKERELVAAITKRGGRTYSADSVKGRFTISRDNAKNTVYLQMNSLKPEDTAVYYCAVDLDGPEYSQVHYDYWGQGTQVTVSS”, for which the “polyreactivity (PSR sort gate)” value is “high polyreactivity”. “QVQLVESGGGLVQAGGSLRLSCAASGYTFPLYAMGWYRQAPGTERELVADINIGGASTYYADSVKGRFTISRDNAKNTVYLQMNSLKPEDTAVYYCAADYTVRVVATYDYWGQGTQVTVSS”: the “polyreactivity (PSR sort gate)” value is “low polyreactivity”.

Regarding “QVQLVESGGGLVQAGGSLRLSCAASGYTFPRYTMGRYRQAPGKERELVAVIRRSGGTHYADSVKGRFTISRDNAKNTVYLLMYSLNPVDIAVYYCAVVSLLQNIPYGFWGQGTQVTVSS”, the “polyreactivity (PSR sort gate)” value is on record as “high polyreactivity”. “QVQLVESGGGLVQAGGSLRLSCAASGYTFPSYAMGWYRQAPGKERELVAVITIGGTYYADSVKGRFTISRDNAKNTVYLQMNSLKPEDTAVYYCAADWAWDYYRGFDYWGQGTQVTVSS”: the “polyreactivity (PSR sort gate)” value is recorded as “low polyreactivity”.

On to “QVQLVESGGGLVQAGGSLRLSCAASGYTFRAYVMGRYRQAPGKEREMVAGITRRGGTTYYADSVKGRFTISRDYAKNTVYLQMNSLKPEDTAVYYCTAVFRSGSIPYVSWGQGTQVTVSS”, for which the “polyreactivity (PSR sort gate)” value is listed as “high polyreactivity”. As to “QVQLVESGGGLVQAGGSLRLSCAASGYTFRFNAMGWYRQAPGKEREFVAAIDFGGAGTYYADSVKGRFTISRDNAKNTVYLQMNSLKPEDTAVYYCNARDGVTTEFDYWGQGTQVTVSS”, the “polyreactivity (PSR sort gate)” value was “low polyreactivity”. For “QVQLVESGGGLVQAGGSLRLSCAASGYTFRPYAMGSYIQAPGKERELVAAISSTGGRTYYADSVKGRFTISRDIAKNTVYVQMNSLKPEYTAVYYCAVLKVYRSSFDYCGQGTQVTVSS”, the “polyreactivity (PSR sort gate)” value is listed as “high polyreactivity”. On to “QVQLVESGGGLVQAGGSLRLSCAASGYTFRYNALGWYRQAPGKERELVAAISSSGRTYYADSVKGRFTSSRDNAKNTVDLQMNSLKPDATAVYYCNAGPYAGARYRWGYDYWGQGTQVTVSS”, for which the “polyreactivity (PSR sort gate)” value is reported as “high polyreactivity”. “QVQLVESGGGLVQAGGSLRLSCAASGYTFRYNAMGWYRQAPGKERELVATISRGGNTNYADSVKGRFTISRDNAKNPVYLQMISLKAEDTAVYYCAKVWRTFPYYSWGQGTQVTVSS”: the “polyreactivity (PSR sort gate)” value is listed as “high polyreactivity”. In the case of “QVQLVESGGGLVQAGGSLRLSCAASGYTFRYYAMGWYRQAPVKERELVARITGRAGSTYYADSVKGRFTISRDNAKNTVYLQMNSLKPEDTAVYYCAASIREGFYWGQGTQVTVSS”, the “polyreactivity (PSR sort gate)” value is “high polyreactivity”. In the case of “QVQLVESGGGLVQAGGSLRLSCAASGYTFRYYVMGWYRQAPGKERELVAAISFSGGSTYYADSVKGRFTISRDTAKNSGYLQMKSLKPEDTAVYYCAARPGGGKYRGYYYWGQGTQVTVSS”, the “polyreactivity (PSR sort gate)” value was “high polyreactivity”. For “QVQLVESGGGLVQAGGSLRLSCAASGYTFSDYAMGWYRQAPGKERELVAAISWSGGSTYYADSVKGRFTISRDNAKNTVFLQMNSLKPEDTAVYYCAAKWYAPDLLYYYWGQGTQVTVSS” the value was “low polyreactivity”; for “QVQLVESGGGLVQAGGSLRLSCAASGYTFSHYAMGWYRQAPGKERELVAGITWSGGSTYYADSVKGRFTISRDYAKNTVYLQMNSLKPEDTSVYYCAAKYYWYYSYSGIPLFDYWGQGTQVTVSS”, “low polyreactivity”. For the sequence “QVQLVESGGGLVQAGGSLRLSCAASGYTFSLYAMGWYRQAPGKERELVAAISSGDRTFYADSVKGRFTISRDNAKNTVYLQMNSLKPEDTAVYYCAARRYYVASIYRYDSWGQGTQVTVSS”, the “polyreactivity (PSR sort gate)” value is reported as “high polyreactivity”. On to “QVQLVESGGGLVQAGGSLRLSCAASGYTFSPNDMGWYRKAPGKERELVAAITSSVGSTYYADSVKGRFTISRDNAKNTVYLQMNSLKPEDTAVYYCARTYQVGDSIDDYWGQGTQVTVSS”, for which the “polyreactivity (PSR sort gate)” value was “low polyreactivity”. As for “QVQLVESGGGLVQAGGSLRLSCAASGYTFSQNAMGWYRQAPGKERELVAAITWSGAGTYYADSVKGRFTISRDNAKNTVYLQMNSLKPEDTAVYYCAAREWTSQDRQHNYWGQGTQVTVSS”, the “polyreactivity (PSR sort gate)” value was “low polyreactivity”. In the case of “QVQLVESGGGLVQAGGSLRLSCAASGYTFSSNAMGWYRQATGKVSELVATNSSGGSTYYADSVKGRFTISRDNAKNTVYLQMYSLKPEDTAVYYCAADDLGWWFYSGGEDYYYWGQGTQVTVSS”, the “polyreactivity (PSR sort gate)” value is “low polyreactivity”. As to “QVQLVESGGGLVQAGGSLRLSCAASGYTFSSYTMGWYRQAPRKERELVAAITYSGGSTYYADSVKGRFTISRDNAKNTVYLQMNSLKPEDTAVYYCNARGRYAYAYWGQGTQVTVSS”, the “polyreactivity (PSR sort gate)” value is “low polyreactivity”. For “QVQLVESGGGLVQAGGSLRLSCAASGYTFSVNALGWYRQAPGKERELVATINSSGGGTYYADSVKGRFTISRDNAKYTVYLQMNSLKPEDTAVFYCAADGYWYGDIYPSDYRWYDYWGQGTQVTVSS” the value was “low polyreactivity”; for “QVQLVESGGGLVQAGGSLRLSCAASGYTFSYYAMGWYRQAPGKERELVARITYSGGSTYYADSVKGRFTISRDNAKNTVYLQMNSLKPEDTAVYFCAARLRYPYWYYNWGQGTQVTVSS”, “high polyreactivity”; for “QVQLVESGGGLVQAGGSLRLSCAASGYTFTGYAMGWYRQAPGKERELVAAITSIGGSTYYADSVKGRFTISRDNAKTTVYLQMNSLKPEDTAVYYCAKDALVIDGGGGYDYWGQGTQVTVSS”, “low polyreactivity”. With “QVQLVESGGGLVQAGGSLRLSCAASGYTFTIYAMGWYRQAPGKQRELVAAITGRGGRTNYADSVKGRFTISRDNAKNTVYLQMNSLKPEDTAVYYCNAVTKVVYHGPYGYDYWGQGTQVTVSS”, the “polyreactivity (PSR sort gate)” value is on record as “high polyreactivity”. For “QVQLVESGGGLVQAGGSLRLSCAASGYTFTSNDMGWYRQAPGKERELFAAITRVGSTNYADSVKGRFTISRDNAKNTVYLQMNSLKPEDTAVYYCAADLWQRHYLVGFGIRYDYWGQGTQVTVSS” the value was “low polyreactivity”.

As for “QVQLVESGGGLVQAGGSLRLSCAASGYTFTVYAMGWYRQAPGKERELVAAITWNGASTYYADSVKARFTISRDNAKKTVYLQMNSLKPEDTAVYNCADPNYFYRDRSRLDYWGQGTQVTVSS”, the “polyreactivity (PSR sort gate)” value is “low polyreactivity”. For “QVQLVESGGGLVQAGGSLRLSCAASGYTFVLYAMGWYRQAPGKERELVAAIRWSGGTTYYADSVKGRFTISRDNAKNTVYCQMNSLKPEDTAVYYCAGWDYTGNVVTGDYWGQCTQVTVSS” the value was “high polyreactivity”; for “QVQLVESGGGLVQAGGSLRLSCAASGYTFVNYAMGWYRQAPGKERELVAAITSRGSSTYYADSVKGRFTISRDNAKNTVYLQMKSLKPEDTAVYYCFVHVRNHDYWGQGTQVTVSS”, “high polyreactivity”; for “QVQLVESGGGLVQAGGSLRLSCAASGYTFVTNAMGWYRQAPGKERELVAAITTVGSTNYADSVKGRFTISRDNAKNTVYLQMNSLKPEDTAVYYCNANWYEWYDWGQGTQVTVSS”, “low polyreactivity”. Under “QVQLVESGGGLVQAGGSLRLSCAASGYTFYGYAMGWYRQAPGKERELVAAISGSGGSTYYADSVKGRFTISRDNAKNTVYLQMNSLKPEDTAFYYCNKARYAIYRGDGYDYWGQGTQVTVSS” stands “high polyreactivity”; under “QVQLVESGGGLVQAGGSLRLSCAASGYTFYIYAMGWYRQAPGKERELVATISSSGGGTYYADSVKGRFTISRDNAKNTVYLQMNSLNPEDTAVYYCNADGWYWQAQGYDYWGQGTQVTVSS”, “low polyreactivity”; under “QVQLVESGGGLVQAGGSLRLSCAASGYTFYQNAMGWYRQAPGKERELVAAITFRTGSTYYADSVKGRFTISRDNAKNTVYLQMNSLKPEDTAVYYCAATRFLRDWWYGYWGQGTQVTVSS”, “low polyreactivity”. On to “QVQLVESGGGLVQAGGSLRLSCAASGYTFYSNAMGSYRQAPGKERELVASIRSRGRSTYYADSVKGRFTISRDNAKNTVYFQMNSLKPEDTAVYYCAALPNTPAVYAYDYWGQGTQVTVSS”, for which the “polyreactivity (PSR sort gate)” value was “low polyreactivity”. As to “QVQLVESGGGLVQAGGSLRLSCAASGYTFYSYALGWYRQAPGKERELVAAITSGGRTNYADSVKGRFTISRDNAKNTVYLQMNSLKPEDTAVYYCAAYVFRAYGRYYYWGQGTQVTVSS”, the “polyreactivity (PSR sort gate)” value is given as “high polyreactivity”. Under “QVQLVESGGGLVQAGGSLRLSCAASGYTFYTNAMGWYIQAPGKERELVASIRSRGRSTYYADSVKGRFTISRDNAKNTVYLQMNSLKPEDTAVFYCAALPNIPAVYAYDYWGQGTQVTVSS” stands “low polyreactivity”; under “QVQLVESGGGLVQAGGSLRLSCAASGYTFYWNAMGWYRQAPGKEREFVASFSGTSTYYADSVKGRFTISRDNAKNTVYLQMNSLKREDTAVYYCNARLTLGPRKYEYWGPGTQVTVSS”, “low polyreactivity”. On to “QVQLVESGGGLVQAGGSLRLSCAASGYTFYYAMGWYRQAPGKERELVAAISAGGGRTYYADSVKGRFTISRDNAKNTVYLQMNSLKPEDTAVYYCNRVYRLTAYGYDYWGQGTQVTVSS”, for which the “polyreactivity (PSR sort gate)” value was “high polyreactivity”.
